This passage reports O.D. 450 nm and ELISA O.D. value results from US20190224101A1.

Test [1] addresses control cells (Staphylococcus epidermidis), whole cells (Staphylococcus epidermidis). Put plainly: mono-scFv-phage ELISA on control cells. For orientation: In an ELISA, binding on a coated surface is turned into a signal by an enzyme label.
The target of test [2] is Propionibacterium acnes (P. acnes) whole cells, surface antigen not identified (Propionibacterium acnes). Put plainly: mono-scFv-phage ELISA on whole P. acnes.
Test [3] concerns the target control cells (Staphylococcus epidermidis), whole cells (Staphylococcus epidermidis). Put plainly: IgG ELISA on control cells.
For test [4], the target named is Propionibacterium acnes (P. acnes) whole cells, surface antigen not identified (Propionibacterium acnes). Put plainly: IgG ELISA on whole P. acnes.

B1: mono-scFv-phage No. 10 (scFv, V domains shown)
VH: QVQLVESGGGLIQPGGSLRLSCVASGFTVSSSFMSWVRLAPGKGLEWVALAYSGGNTYYADSVKGRFTVSRDDSSNTLYLQMNSLRAEDTAVYYCSCEGKAVSGSRDLHFEFWSPGTLVTVSS
VL: SYELTQAPSLSVSPGQTANIICSGDNLRTKYVSWYQQKPGQAPVLVIYNDNDRPSGIPERFSGTNSGNTAALTISRVEAGDEADYYCQVWDSSSDHLIFGGGTKLTVL
In the case of B1, the O.D. 450 nm in test [1] turned out to be 0.0023 O.D. 450 nm. In test [2], this molecule returned an ELISA O.D. value of 2.07 O.D and an O.D. 450 nm of 1.81 O.D. 450 nm.

B2: 10F antibody (antibody, V domains shown)
VH: B1 VH
VL: B1 VL
For the molecule B2, the O.D. 450 nm is -0.0248 O.D. 450 nm in test [3] and 0.00605 O.D. 450 nm in test [4].

B3: mono-scFv-phage No. 3 (scFv, V domains shown)
VH: QMQLVQSGAEVKKPGASVKVSCKASGYTFTDYYIHWVRQAPGQGLEWMGWINPNSGAPEFAQRFQGRVSMTRDASINTTYMELSGLRSEDTAVYYCVKGLEHAAGSAIFDRWGQGTMVTVSS
VL: QTVVTQEPSFSVSPGGTVTLTCGLTSGSVSTSHFPSWYQQTPGQAPRTLIYFKDTRSSGVPDRFSGSILGNKAALTITGAQADDESDYYCALSMGSGIWVFGGGTKLTVL
B3 gave an O.D. 450 nm in test [1] of 0.0002 O.D. 450 nm. Besides, in test [2], the ELISA O.D. value is 3.62 O.D and the O.D. 450 nm was determined as 3.36 O.D. 450 nm.

B4: 3F antibody (antibody, V domains shown)
VH: B3 VH
VL: B3 VL
Take B4: the results for the O.D. 450 nm in test [3] and in test [4] were -0.0105 O.D. 450 nm and 0.0149 O.D. 450 nm, respectively.

B5: mono-scFv-phage No. 6 (scFv, V domains shown)
VH: QVQLVESGGGVVRPGGSLRLSCTASGFTFDDHGMSWVRQAPGKGLEWVSTINLNGGSTAYADSVKGRFTISRDNAKNSLYLQMNSLRAEDTAVYYCSTRHLHHWGQGTLVTVSS
VL: DIVMTQTPLSSPVTLGQPASISCRSSQSLVHSNGNTYLTWLQQRPGQPPRLLIHKISNRFSGVPDRFSGSGAGTDFTLKISRVEAEDVGVYYCVQAKQFPLTFGQGTRLEIK
As to B5, the O.D. 450 nm in test [1] was determined as 0.0041 O.D. 450 nm; in test [2], 1.95 O.D. 450 nm. In test [2], this molecule yielded an ELISA O.D. value of 2.22 O.D.

B6: 6F antibody (antibody, V domains shown)
VH: B5 VH
VL: B5 VL
B6: the results for the O.D. 450 nm in test [3] and in test [4] were 0.0114 O.D. 450 nm and 2.36 O.D. 450 nm, respectively.

B7: mono-scFv-phage No. 8 (scFv, V domains shown)
VH: QVQLVQSGGGVVQPGGSLRLSCAASGFSFNDYAMHWVRQVPGKGLEWVSSISWNSRSTVYAASVEGRFSISRDNSKNSLYLQMNSLRAEDAAVYYCTTDLGVVPAAIYAFDIWGQGTMVTVSS
VL: DIQMTQSPSVMSASVGDRVNITCRASQGITNWLAWYQQKPGKAPKLLISAASSLQSGVPSRFSGSGSGTDFTLTISSLQPDDFATYYCQQTATFQITFGQGTRLDIK
In test [1], B7 came in with an O.D. 450 nm of 0.0044 O.D. 450 nm. In test [2], this molecule showed an ELISA O.D. value of 2.08 O.D and an O.D. 450 nm of 1.82 O.D. 450 nm.

B8: 8F antibody (antibody, V domains shown)
VH: B7 VH
VL: B7 VL
On to B8, for which the O.D. 450 nm was -0.0268 O.D. 450 nm in test [3] and 2.32 O.D. 450 nm in test [4].
